Measured values published in patent US20260144882A1 (BIO THERA SOLUTIONS, published 2026).
Numbering of substitutions follows the chain as printed.

B1: 1G8-2D9 scFv (scFv, V domains shown)
VH: EVQLVESGGGLVQPGGSLRLSCAASGDIFDGYSMSWVRQAPGKGLEWVSRIDTGGSVKNYADSVKGRFTISRDNSKNTLYLQMNSLRAEDTAVYYCARQTEDRSYGYDLDYWGQGTLVTVSS
VL: DIQMTQSPSSLSASVGDRVTITCRASQGISSYLAWYQQKPGKAPKLLIYAASSLQSGVPSRFSGSGSGTDFTLTISSLQPEDFATYYCQQHYTTPPTFGQGTKVEIKR
notes: phage clone supernatant
B2: 1G8-2B12 scFv (scFv, V domains shown)
VH: B1 VH with I28T, D30G, G31T, Y32S, G54W, S56W, V57Y, N59F
VL: B1 VL
notes: phage clone supernatant
B3: 10F4-2A9 scFv (scFv, V domains shown)
VH: EVQLVESGGGLVQPGGSLRLSCAASGYTFTDYDMSWVRQAPGKGLEWVSGIKQYKGYTSYADSVKGRFTISRDNSKNTLYLQMNSLRAEDTAVYYCAREYSDVVDYVSVRTPLDYWGQGTLVTVSS
VL: B1 VL
notes: phage clone supernatant
B4: 1G8-1F5 scFv (scFv, V domains shown)
VH: EVQLVESGGGLVQPGGSLRLSCAASGDIFDTYMSWVRQAPGKGLEWVSRIYTDGSSDYADSVKGRFTISRDNSKNTLYLQMNSLRAEDTAVYYCARQTEDRSYGYDLDYWGQGTLVTVSS
VL: B1 VL
notes: phage clone supernatant
B5: 1G8-2G12 scFv (scFv, V domains shown)
VH: EVQLVESGGGLVQPGGSLRLSCAASGFTFSNNAMSWVRQAPGKGLEWVSAIYASTDGRSYADSVKGRFTISRDNSKNTLYLQMNSLRAEDTAVYYCARQTEDRSYGYDLDYWGQGTLVTVSS
VL: B1 VL
notes: phage clone supernatant
B6: 10F4-1D3 scFv (scFv, V domains shown)
VH: EVQLVESGGGLVQPGGSLRLSCAASGFSFYDYDMSWVRQAPGKGLEWVSSIIQSGSTAFYADSVKGRFTISRDNSKNTLYLQMNSLRAEDTAVYYCAREYSDVVDYVSVRTPLDYWGQGTLVTVSS
VL: B1 VL
notes: phage clone supernatant
B7: 1G8-2G4 scFv (scFv, V domains shown)
VH: B1 VH with D27F, I28T, D30G, D52S, G54D, S56A, V57Y, K58T
VL: B1 VL
notes: phage clone supernatant
B8: 10F4-1B7 scFv (scFv, V domains shown)
VH: B6 VH with S28N, Y30S, D31G, Y32F, S50G, I52K, Q53A, S54Y, G55K, F59D
VL: B1 VL
notes: phage clone supernatant
B9: 10F4-1E12 scFv (scFv, V domains shown)
VH: B3 VH with T28N, T30S, D31S, K52S, Q53D, Y54T, K55G, G56D, T58A, S59N
VL: B1 VL
notes: phage clone supernatant
B10: 10F4-1A3 scFv (scFv, V domains shown)
VH: B3 VH with T28S, T30S, D31N, Q53G, Y54W, G56S, S59G
VL: B1 VL
notes: phage clone supernatant
B11: 1G8-2H1 scFv (scFv, V domains shown)
VH: B1 VH with D27Y, I28S, D30Y, G31S, S33A, D52S, T53Q, S56G, K58T, N59H
VL: B1 VL
notes: phage clone supernatant
B12: 1G8-2H11 scFv (scFv, V domains shown)
VH: B5 VH with T28N, S30D, N32Y, A50R, A53G, S54W, T55D, D56W, G57Y, R58A
VL: B1 VL
notes: phage clone supernatant
B13: 10F4-1C10 scFv (scFv, V domains shown)
VH: B3 VH with T28N, T30G, D31S, Q53T, K55G, Y57N, S59H
VL: B1 VL
notes: phage clone supernatant
B14: 1G8-2G3 scFv (scFv, V domains shown)
VH: EVQLVESGGGLVQPGGSLRLSCAASGFIFGGNAMSWVRQAPGKGLEWVSRISSDKGTTNYADSVKGRFTISRDNSKNTLYLQMNSLRAEDTAVYYCARQTEDRSYGYDLDYWGQGTLVTVSS
VL: B1 VL
notes: phage clone supernatant
B15: 1G8-2D11 scFv (scFv, V domains shown)
VH: B1 VH with D27Y, I28S, D30S, Y32N, S33A, T53G, G54W, V57Y, K58T, N59D
VL: B1 VL
notes: phage clone supernatant
B16: 1G8-2H3 scFv (scFv, V domains shown)
VH: B14 VH with F27Y, I28S, N32Y, S53G, D54I, G56A, T57Y, T58N, N59D
VL: B1 VL
notes: phage clone supernatant
B17: 10F4-1E10 scFv (scFv, V domains shown)
VH: B3 VH with Y27D, T30D, D31T, D33A, K52S, Y54W, K55G, G56A, T58A
VL: B1 VL
notes: phage clone supernatant
B18: 10F4-1B2 scFv (scFv, V domains shown)
VH: B6 VH with Y30G, D31N, D33W, S50G, I52D, Q53G, S54H, G55S, T57Y
VL: B1 VL
notes: phage clone supernatant
B19: 10F4-1D11 scFv (scFv, V domains shown)
VH: B6 VH with S28I, Y30S, Y32F, S50G, I52K, G55S, S56A, T57G, A58I, F59N
VL: B1 VL
notes: phage clone supernatant
B20: 1G8-2G7 scFv (scFv, V domains shown)
VH: B14 VH with F27G, I28T, G30Y, G31T, N32Y, S52Y, D54T, T58P, N59D
VL: B1 VL
notes: phage clone supernatant
B21: 10F4-1F2 scFv (scFv, V domains shown)
VH: EVQLVESGGGLVQPGGSLRLSCAASGYNFTNYYMSWVRQAPGKGLEWVSSISAYSDNRNYADSVKGRFTISRDNSKNTLYLQMNSLRAEDTAVYYCAREYSDVVDYVSVRTPLDYWGQGTLVTVSS
VL: B1 VL
notes: phage clone supernatant
B22: 1G8-2E7 scFv (scFv, V domains shown)
VH: B5 VH with F27Y, S30G, N32Y, A50R, Y52S, A53P, D56W, G57N, R58I, S59D
VL: B1 VL
notes: phage clone supernatant
B23: 1G8-2H8 scFv (scFv, V domains shown)
VH: B14 VH with F27D, G31S, N32Y, R50A, S53G, D54S, K55G, T57S, N59Y
VL: B1 VL
notes: phage clone supernatant
B24: 1G8-2F2 scFv (scFv, V domains shown)
VH: B14 VH with F27D, G31S, N32Y, D54H, K55G, G56A, T57S, T58R, N59D
VL: B1 VL
notes: phage clone supernatant
B25: 10F4-1C4 scFv (scFv, V domains shown)
VH: B6 VH with S28N, Y30T, D33W, Q53G, S54D, G55D, A58N, F59H
VL: B1 VL
notes: phage clone supernatant
B26: 10F4-1B5 scFv (scFv, V domains shown)
VH: B6 VH with S28N, Y30T, D33W, Q53G, S54D, G55D, A58N, F59H
VL: B1 VL
notes: phage clone supernatant
B27: 1G8-2F9 scFv (scFv, V domains shown)
VH: B1 VH with D27Y, I28S, D30S, G31N, S33A, D52S, T53A, G54W, V57T, K58N
VL: B1 VL
notes: phage clone supernatant
B28: 1G8-2G9 scFv (scFv, V domains shown)
VH: B14 VH with F27Y, G30T, G31N, N32Y, S53Q, D54S, K55G, T58N, N59D
VL: B1 VL
notes: phage clone supernatant
B29: 1G8-2F11 scFv (scFv, V domains shown)
VH: B14 VH with F27Y, I28T, G31S, S53P, K55S, G56S, T57G, T58I, N59S
VL: B1 VL
notes: phage clone supernatant
B30: 10F4-1C3 scFv (scFv, V domains shown)
VH: B6 VH with F27Y, Y30S, D33W, I52K, S54T, S56G, T57V, A58K, F59H
VL: B1 VL
notes: phage clone supernatant
B31: 10F4-1A1 scFv (scFv, V domains shown)
VH: B6 VH with Y30D, D31N, I52K, Q53P, S54G, G55S, S56A, T57Y, A58K
VL: B1 VL
notes: phage clone supernatant
B32: 1G8-2G8 scFv (scFv, V domains shown)
VH: B14 VH with I28N, G30T, G31N, N32Y, S53T, D54Y, K55G, G56D, N59H
VL: B1 VL
notes: phage clone supernatant
B33: 1G8-2H4 scFv (scFv, V domains shown)
VH: B14 VH with F27D, I28S, G30T, N32Y, R50A, S53G, D54S, K55G, T57S, N59Y
VL: B1 VL
notes: phage clone supernatant
B34: 1G8-2H9 scFv (scFv, V domains shown)
VH: B5 VH with T28N, S30G, N32Y, A53S, S54Y, T55F, G57E, R58P, S59R
VL: B1 VL
notes: phage clone supernatant
B35: 10F4-1 scFv (scFv, V domains shown)
VH: B6 VH with F27D, Y30T, D31N, D33W, S50G, I52S, S54G, T57Y, F59Y
VL: B1 VL
notes: phage clone supernatant
B36: 1G8-2H10 scFv (scFv, V domains shown)
VH: EVQLVESGGGLVQPGGSLRLSCAASGYNFTNSAMSWVRQAPGKGLEWVSSIYYHSGVPRYADSVKGRFTISRDNSKNTLYLQMNSLRAEDTAVYYCARQTEDRSYGYDLDYWGQGTLVTVSS
VL: B1 VL
notes: phage clone supernatant

What follows are binders tested against T1, human Nectin-4 extracellular antigen hNectin-4-His (human, UniProt Q96NY8 32-349) (assay: ELISA, phage scFv supernatant 1:50).
T1 construct: C-terminal 8xHis tag included
T1 sequence: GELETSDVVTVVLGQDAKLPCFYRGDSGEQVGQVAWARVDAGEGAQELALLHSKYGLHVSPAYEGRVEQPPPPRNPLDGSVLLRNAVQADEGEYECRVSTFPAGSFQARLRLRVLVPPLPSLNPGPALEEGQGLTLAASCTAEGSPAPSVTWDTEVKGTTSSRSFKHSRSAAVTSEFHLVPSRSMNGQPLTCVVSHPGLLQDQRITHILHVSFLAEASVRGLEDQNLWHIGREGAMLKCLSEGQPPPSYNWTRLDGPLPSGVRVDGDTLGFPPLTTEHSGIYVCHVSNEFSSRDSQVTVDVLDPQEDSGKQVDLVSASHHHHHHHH

Point of comparison: B10, OD value 1.53 OD. Against it:
- B1 — higher, 1.54 OD
- B2 — lower, 1.39 OD
- B3 — higher, 1.57 OD
- B4 — higher, 1.56 OD
- B5 — lower, 1.5 OD
- B6 — lower, 1.52 OD
- B7 — higher, 1.58 OD
- B8 — higher, 1.6 OD
- B9 — lower, 1.52 OD
- B11 — higher, 1.58 OD
- B12 — lower, 1.35 OD
- B13 — lower, 1.52 OD
- B14 — higher, 1.58 OD
- B15 — the same, 1.53 OD
- B16 — the same, 1.53 OD
- B17 — lower, 1.29 OD
- B18 — higher, 1.64 OD
- B19 — lower, 1.46 OD
- B20 — lower, 1.49 OD
- B21 — lower, 1.4 OD
- B22 — higher, 1.56 OD
- B23 — higher, 1.57 OD
- B24 — higher, 1.6 OD
- B25 — lower, 1.46 OD
- B26 — the same, 1.53 OD
- B27 — higher, 1.56 OD
- B28 — higher, 1.54 OD
- B29 — higher, 1.57 OD
- B30 — higher, 1.59 OD
- B31 — higher, 1.69 OD
- B32 — higher, 1.58 OD
- B33 — higher, 1.58 OD
- B34 — lower, 1.46 OD
- B35 — lower, 1.39 OD
- B36 — the same, 1.53 OD
